Source: paper PMC6108940 (Cell, 2018)

What was measured:
[1] = target: K. lactis Bre2 (crystallised construct) (K. lactis); experiment: crystal structure
[2] = target: K. lactis Sdc1 (crystallised construct) (K. lactis); experiment: crystal structure
[3] = target: yeast COMPASS catalytic module (Set1-Swd1-Swd3-Bre2-Sdc1) (Kluyveromyces lactis, UniProt Q6CIT4); experiment: H3K4 methylation of nucleosomes, western blot; format: biochemical; conditions: 0.2 mM SAM, 1 uM enzyme, 0.5 uM nucleosomes, pH 7.5, 30 C, 30 min

stoichiometry N [1] | stoichiometry N [2] | Compound | H3K4 methylation of nucleosomes, western blot [3]
2 | 2 | K. lactis Sdc1 (crystallised construct) (natural protein) | 
 |  | C[S+](CC[C@H](N)C(=O)O)C[C@H]1O[C@@H](n2cnc3c(N)ncnc32)[C@H](O)[C@@H]1O (stereo partly drawn) [SAM] | alanine mutation of Trp197 drastically compromised the catalytic activity of Set1
